Test results published in US20150203579A1 (Regeneron, published 2015).

B1: H2aM7798N (antibody, mouse IgG2a, V domains shown)
VH: EVQLLESGGVLVQPGGSLRLSCAASGFTFSNFGMTWVRQAPGKGLEWVSGISGGGRDTYFADSVKGRFTISRDNSKNTLYLQMNSLKGEDTAVYYCVKWGNIYFDYWGQGTLVTVSS
VL: DIQMTQSPSSLSASVGDSITITCRASLSINTFLNWYQQKPGKAPNLLIYAASSLHGGVPSRFSGSGSGTDFTLTIRTLQPEDFATYYCQQSSNTPFTFGPGTVVDFR
notes: Human variable domains, mouse IgG2a Fc; also called H2M7798N
B2: H4H7798N (antibody, human IgG4 S228P, kappa, V domains shown)
VH: B1 VH
VL: DIQMTQSPSSLSASVGDSITITCRASLSINTFLNWYQQKPGKAPNLLIYAASSLHGGVPSRFSGSGSGTDFTLTIRTLQPEDFATYYCQQSSNTPFTFGPGTVVDFRR
B3: H2aM7796N (antibody, mouse IgG2a, V domains shown)
VH: QVQLVESGGGVVQPGRSLRLSCAASGFTFSSYGMHWVRQAPGKGLEWVAIIWSDGDSEYNLDSVKGRFTISRDNSKNTLYLQMNSLRVEDSAVYYCARDRDLEDIWGQGTMVTVSS
VL: DIQMTQSPSSLSASVGDRVTITCRASQGIRNDLGWYQQKPGKAPKRLIYAASNLQSGVPSRFSGSGSGTEFTLTISSLQPEDFATYYCLQHNSYPLTFGGGTKVEIK
notes: Human variable domains, mouse IgG2a Fc; also called H2M7796N
B4: H1M7799N (antibody, mouse IgG1, V domains shown)
VH: EVQLVESGGGLVQPGGSLRLSCAASGFTVSNNYMSWVRQAPGKGLEWVSVIYSGGFTYYTDSVKGRFTISRHNSKNTLYLQMNSLRAEDTAVYYCARYYYDTSDYWTFFDYWGQGTLVTVSS
VL: EIVMTQSPATLSVSPGERATLSCRASQSVSSNLAWYQQKPGQAPRLLIYGASTRATGIPARFSGSGSGTEFTLTISSLQSGDFAVYYCQQYNNWPLTFGGGTKVEIN
notes: Human variable domains, mouse IgG1 Fc

What was measured:
[1] = target: T1, recombinant human PD-1 dimer expressed with a C-terminal mouse IgG2a Fc tag (human); test: competition ELISA: blocking 100 pM hPD-1-mFc binding to coated hPD-L2-hFc; end tied to H2aM7798N by Table 14
T1 construct: also called hPD-1-mFc; human PD-1-mFc

[2] = target: T2, recombinant human PD-1 expressed with a C-terminal myc-myc-hexahistidine tag (human); test: SPR (Biacore), mAb captured, hPD-1-MMH injected, 25 C;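 further: rate constants obtained by fitting sensorgrams to a 1:1 binding model, KD derived as kd/ka and half-life as ln2/(60·kd) in minutes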
T2 construct: also called hPD-1-MMH; human PD-1-MMH

[3] = target: T2, recombinant human PD-1 expressed with a …; test: SPR (Biacore), hPD-1-MMH, 37 C; end of range tied to H2aM7798N by Table 5
[4] = target: PD-1 chimera: extracellular domain of human PD-1 with trans-membrane and cytoplasmic domains of human CD300a, … (human, UniProt Q9UGN4 181-299, limits assumed); test: cell-based or functional assay
[5] = target: T3, human PD-1 dimer (human PD-1-mFc or human PD-1-hFc) (human, UniProt Q15116 25-170); test: SPR (Biacore), hPD-1 dimer (mFc or hFc), 25 C; end of range tied to H2aM7798N by Table 6
T3 construct: also called hPD-1 dimer proteins

[6] = target: T4, recombinant cynomolgus monkey PD-1 expressed with a C-terminal myc-myc-hexahistidine tag (cynomolgus monkey (Macaca fascicularis)); test: SPR (Biacore), MfPD-1-MMH, 37 C; end of range tied to H2aM7798N by Table 9
T4 construct: Monomeric reagent; also called MfPD-1-MMH
T4 chain: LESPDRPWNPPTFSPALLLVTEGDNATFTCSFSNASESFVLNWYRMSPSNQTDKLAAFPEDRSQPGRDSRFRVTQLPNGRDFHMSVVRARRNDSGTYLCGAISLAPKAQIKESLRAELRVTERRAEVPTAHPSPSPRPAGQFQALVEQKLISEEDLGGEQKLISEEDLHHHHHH

monkey PD-1 with mFc = target: T5, monkey PD-1 with mFc (monkey (MfPD-1)); test: SPR (Biacore), monkey PD-1-mFc, 25 C; end of range tied to H4H7798N by Table 10
T5 construct: also called monkey PD-1-mFc; monkey PD-1 dimer
T5 chain: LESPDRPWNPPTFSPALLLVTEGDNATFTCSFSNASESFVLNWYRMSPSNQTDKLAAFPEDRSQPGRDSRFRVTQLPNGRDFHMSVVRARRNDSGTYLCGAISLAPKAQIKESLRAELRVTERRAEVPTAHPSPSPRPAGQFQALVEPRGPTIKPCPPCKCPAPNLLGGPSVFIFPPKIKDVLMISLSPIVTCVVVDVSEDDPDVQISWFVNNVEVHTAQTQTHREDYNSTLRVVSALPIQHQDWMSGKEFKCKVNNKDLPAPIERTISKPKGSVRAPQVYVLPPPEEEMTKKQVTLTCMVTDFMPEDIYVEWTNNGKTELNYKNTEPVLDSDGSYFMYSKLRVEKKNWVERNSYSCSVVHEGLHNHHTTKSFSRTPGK

[7] = target: T6, full length human PD-1 on HEK293 cells (HEK293/hPD-1) (human, UniProt Q15116 25-288); test: FACS, dose titration on HEK293/hPD-1 cells; end tied to H4H7798N by Table 21
T6 construct: also called human PD-1 expressing cells

[8] = target: T2, recombinant human PD-1 expressed with a …; test: SPR (Biacore), hPD-1-MMH, 37 C; end of range tied to H2aM7796N by Table 5
[9] = target: T6, full length human PD-1 on HEK293 cells …; test: FACS, dose titration on HEK293/hPD-1 cells; end tied to H2aM7796N by Table 21
[10] = target: T7, dimeric biotinylated human PD-1 protein, human PD-1 extracellular domain with a C-terminal human Fc tag (human, biotinylated (sites not given)); test: competition ELISA: blocking 200 pM biot-hPD-1-hFc binding to coated hPD-L1-mFc; end tied to H2aM7796N (and H4xH9008P) by Table 13
T7 construct: also called biot-hPD-1-hFc

[11] = target: T6, full length human PD-1 on HEK293 cells …; test: FACS, dose titration on HEK293/hPD-1 cells; end tied to H1M7799N by Table 20
[12] = target: T7, dimeric biotinylated human PD-1 …; test: competition ELISA: blocking 200 pM biot-hPD-1-hFc binding to coated hPD-L1-mFc; end tied to H1M7799N by Table 13 (below theoretical bottom 100 pM)

Binder	IC50 [1] [nM]	Kd [2] [nM]	koff [2] [s⁻¹]	kon [2] [M⁻¹ s⁻¹]	t½ [2] [min]	Kd [3] [nM]	Emax, AP1-Luc signal at 100 nM antibody (% of signal without anti-PD-1 antibody) [4] [%]	Kd [5] [nM]	Kd [6] [nM]	Kd (monkey PD-1 with mFc) [nM]	EC50 [7] [nM]	Kd [8] [nM]	EC50 [9] [nM]	IC50 [10] [nM]	EC50 [11] [nM]	IC50 [12] [nM]
B1	0.13	2.31	0.000306	132000	38	3.79	239	0.0655	7							
B2		3.01	0.000443	147000	26		343			0.137	0.509					
B3		286	0.00193	6730	6							1510	4.81	1.3		
B4		244	0.0123	50400	0.9										0.0332	0.059
